Reference: IntAct's records for PubMed 14517550

B1: Caspase Dronc (Drosophila melanogaster (Fruit fly)), Q9XYF4 (parent)
chain: MQPPELEIGMPKRHREHIRKNLNILVEWTNYERLAMECVQQGILTVQMLRNTQDLNGKPFNMDEKDVRVEQHRRLLLKITQRGPTAYNLLINALRNINCLDAAVLLESVDESDSRPPFISLNERRTSRKSADIVDTPSPEASEGPCVSKLRNEPLGALTPYVGVVDGPEVKKSKKIHGGDSAILGTYKMQSRFNRGVLLMVNIMDYPDQNRRRIGAEKDSKSLIHLFQELNFTIFPYGNVNQDQFFKLLTMVTSSSYVQNTECFVMVLMTHGNSVEGKEKVEFCDGSVVDMQKIKDHFQTAKCPYLVNKPKVLMFPFCRGDEYDLGHPKNQGNLMEPVYTAQEEKWPDTQTEGIPSPSTNVPSLADTLVCYANTPGYVTHRDLDTGSWYIQKFCQVMADHAHDTDLEDILKKTSEAVGNKRTKKGSMQTGAYDNLGFNKKLYFNPGFFNE
partner: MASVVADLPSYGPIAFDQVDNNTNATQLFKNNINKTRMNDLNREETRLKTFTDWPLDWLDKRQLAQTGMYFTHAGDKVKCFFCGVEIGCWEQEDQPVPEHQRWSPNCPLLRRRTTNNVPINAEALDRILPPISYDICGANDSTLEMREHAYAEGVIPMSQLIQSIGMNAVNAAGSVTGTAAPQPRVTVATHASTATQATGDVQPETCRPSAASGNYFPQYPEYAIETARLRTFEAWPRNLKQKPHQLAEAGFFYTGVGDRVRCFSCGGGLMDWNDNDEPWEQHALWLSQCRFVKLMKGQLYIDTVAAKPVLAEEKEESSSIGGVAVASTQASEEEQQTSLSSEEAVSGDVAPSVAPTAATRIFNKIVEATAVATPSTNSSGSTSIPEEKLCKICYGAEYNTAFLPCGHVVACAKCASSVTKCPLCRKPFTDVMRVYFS

Variants of: B1
Conditions: with diap1_drome Diap1, Q24306

| Variant | effect of a mutation on the interaction |
| --- | --- |
| F118E | decreasing interaction |
